According to publication PMC10656227:
Values belong to the substance of their own block, whether it stands above or below them.

Experiments:
[1] = biological target: collagen IV NC1 domains of the NC1 hexamer from American lobster (American lobster (Homarus americanus)); assay: SDS-PAGE (SDS resistance of the native hexamer); straight collagenase digest of tissue or animals; regular SDS-PAGE without Cl^− supplement; sample at room temperature; Western blot with JK2
[2] = biological target: collagen IV NC1 domains of the NC1 hexamer from American lobster (American lobster (Homarus americanus)); assay: SDS-PAGE (SDS resistance of the native hexamer); straight collagenase digest of tissue or animals; SDS-PAGE with 150 mM NaCl; sample at room temperature; Western blot with JK2
[3] = biological target: collagen IV NC1 domains of the NC1 hexamer from Ascaris suum (Ascaris suum); assay: SDS-PAGE (SDS resistance of the native hexamer); purified NC1 hexamer; regular SDS-PAGE without Cl^− supplement; sample at room temperature, not boiled; Coomassie, TCE or Western blot
[4] = biological target: collagen IV NC1 domains of the NC1 hexamer from Ascaris suum (Ascaris suum); assay: SDS-PAGE (SDS resistance of the native hexamer); purified NC1 hexamer; Tris-glycine SDS-PAGE with 150 mM NaCl in running buffer and sample buffer; sample at room temperature, not boiled; Coomassie, TCE or Western blot
[5] = biological target: collagen IV NC1 domains of the NC1 hexamer from Caenorhabditis elegans (Caenorhabditis elegans); assay: SDS-PAGE (SDS resistance of the native hexamer); partially purified NC1 hexamer (SEC hexamer fraction); regular SDS-PAGE without Cl^− supplement; sample at room temperature; Western blot with JK2 or TCE in-gel visualization
[6] = biological target: collagen IV NC1 domains of the NC1 hexamer from Caenorhabditis elegans (Caenorhabditis elegans); assay: SDS-PAGE (SDS resistance of the native hexamer); partially purified NC1 hexamer (SEC hexamer fraction); SDS-PAGE with 150 mM NaCl; sample at room temperature; Western blot with JK2 or TCE in-gel visualization
[7] = biological target: collagen IV NC1 domains of the NC1 hexamer from brine shrimp (brine shrimp (Artemia salina)); assay: SDS-PAGE (SDS resistance of the native hexamer); straight collagenase digest of tissue or animals; regular SDS-PAGE without Cl^− supplement; sample at room temperature; Western blot with JK2
[8] = biological target: collagen IV NC1 domains of the NC1 hexamer from brine shrimp (brine shrimp (Artemia salina)); assay: SDS-PAGE (SDS resistance of the native hexamer); straight collagenase digest of tissue or animals; SDS-PAGE with 150 mM NaCl; sample at room temperature; Western blot with JK2
[9] = biological target: collagen IV NC1 domains of the NC1 hexamer from brown planaria (brown planaria (Dugesia tigrina)); assay: SDS-PAGE (SDS resistance of the native hexamer); partially purified NC1 hexamer (SEC hexamer fraction); regular SDS-PAGE without Cl^− supplement; sample at room temperature; Western blot with JK2 or TCE in-gel visualization
[10] = biological target: collagen IV NC1 domains of the NC1 hexamer from brown planaria (brown planaria (Dugesia tigrina)); assay: SDS-PAGE (SDS resistance of the native hexamer); partially purified NC1 hexamer (SEC hexamer fraction); SDS-PAGE with 150 mM NaCl; sample at room temperature; Western blot with JK2 or TCE in-gel visualization
[11] = biological target: collagen IV NC1 domains of the NC1 hexamer from cicada (cicada (Magicicada spp)); assay: SDS-PAGE (SDS resistance of the native hexamer); straight collagenase digest of tissue or animals; regular SDS-PAGE without Cl^− supplement; sample at room temperature; Western blot with JK2
[12] = biological target: collagen IV NC1 domains of the NC1 hexamer from cicada (cicada (Magicicada spp)); assay: SDS-PAGE (SDS resistance of the native hexamer); straight collagenase digest of tissue or animals; SDS-PAGE with 150 mM NaCl; sample at room temperature; Western blot with JK2
[13] = biological target: collagen IV NC1 domains of the NC1 hexamer from comb jelly (comb jelly (Mnemiopsis leidyi)); assay: SDS-PAGE (SDS resistance of the native hexamer); partially purified NC1 hexamer (SEC hexamer fraction); regular SDS-PAGE without Cl^− supplement; sample at room temperature; Western blot with JK2 or TCE in-gel visualization
[14] = biological target: collagen IV NC1 domains of the NC1 hexamer from comb jelly (comb jelly (Mnemiopsis leidyi)); assay: SDS-PAGE (SDS resistance of the native hexamer); partially purified NC1 hexamer (SEC hexamer fraction); SDS-PAGE with 150 mM NaCl; sample at room temperature; Western blot with JK2 or TCE in-gel visualization
[15] = biological target: collagen IV NC1 domains of the NC1 hexamer from condylactis anemone (condylactis anemone (Condylactis gigantea)); assay: as above
[16] = biological target: collagen IV NC1 domains of the NC1 hexamer from fruit fly (fruit fly (Drosophila melanogaster)); assay: SDS-PAGE (SDS resistance of the native hexamer); purified NC1 hexamer; regular SDS-PAGE without Cl^− supplement; sample at room temperature, not boiled; Coomassie, TCE or Western blot
[17] = biological target: collagen IV NC1 domains of the NC1 hexamer from fruit fly (fruit fly (Drosophila melanogaster)); assay: SDS-PAGE (SDS resistance of the native hexamer); purified NC1 hexamer; Tris-glycine SDS-PAGE with 150 mM NaCl in running buffer and sample buffer; sample at room temperature, not boiled; Coomassie, TCE or Western blot
[18] = biological target: collagen IV NC1 domains of the NC1 hexamer from horseshoe crab flatworm (horseshoe crab flatworm (Bdelloura candida)); assay: SDS-PAGE (SDS resistance of the native hexamer); partially purified NC1 hexamer (SEC hexamer fraction); SDS-PAGE with 150 mM NaCl; sample at room temperature; Western blot with JK2 or TCE in-gel visualization
[19] = biological target: collagen IV NC1 domains of the NC1 hexamer from marmoset kidney (common marmoset (Callithrix jacchus)); assay: as above
[20] = biological target: collagen IV NC1 domains of the NC1 hexamer from moon jellyfish (moon jellyfish (Aurelia aurita)); assay: as above
[21] = biological target: collagen IV NC1 domains of the NC1 hexamer from mouse kidney (mouse (Mus musculus)); assay: SDS-PAGE (SDS resistance of the native hexamer); straight collagenase digest of tissue or animals; SDS-PAGE with 150 mM NaCl; sample at room temperature; Western blot with JK2
[22] = biological target: collagen IV NC1 domains of the NC1 hexamer from rotifers (rotifer (Brachionus plicatilis)); assay: SDS-PAGE (SDS resistance of the native hexamer); partially purified NC1 hexamer (SEC hexamer fraction); regular SDS-PAGE without Cl^− supplement; sample at room temperature; Western blot with JK2 or TCE in-gel visualization
[23] = biological target: collagen IV NC1 domains of the NC1 hexamer from rotifers (rotifer (Brachionus plicatilis)); assay: SDS-PAGE (SDS resistance of the native hexamer); partially purified NC1 hexamer (SEC hexamer fraction); SDS-PAGE with 150 mM NaCl; sample at room temperature; Western blot with JK2 or TCE in-gel visualization
[24] = biological target: collagen IV NC1 domains of the NC1 hexamer from starlet sea anemone (starlet sea anemone (Nematostella vectensis)); assay: as above

Substance: collagen IV NC1 domains of the NC1 hexamer from American lobster (domain or fragment)
stoichiometry N [1]: 6
stoichiometry N [2]: 6

Substance: collagen IV NC1 domains of the NC1 hexamer from Ascaris suum (domain or fragment)
stoichiometry N [3]: 6
stoichiometry N [4]: 6

Substance: collagen IV NC1 domains of the NC1 hexamer from Caenorhabditis elegans (domain or fragment)
stoichiometry N [5]: 6
stoichiometry N [6]: 6

Substance: collagen IV NC1 domains of the NC1 hexamer from brown planaria (domain or fragment)
stoichiometry N [9]: 6
stoichiometry N [10]: 6

Substance: collagen IV NC1 domains of the NC1 hexamer from comb jelly (domain or fragment)
stoichiometry N [13]: 6
stoichiometry N [14]: 6

Substance: collagen IV NC1 domains of the NC1 hexamer from condylactis anemone (domain or fragment)
stoichiometry N [15]: 6

Substance: collagen IV NC1 domains of the NC1 hexamer from marmoset kidney (domain or fragment)
stoichiometry N [19]: 6

Substance: collagen IV NC1 domains of the NC1 hexamer from moon jellyfish (domain or fragment)
stoichiometry N [20]: 6

Substance: collagen IV NC1 domains of the NC1 hexamer from mouse kidney (domain or fragment)
stoichiometry N [21]: 6

Substance: collagen IV NC1 domains of the NC1 hexamer from starlet sea anemone (domain or fragment)
stoichiometry N [24]: 6

More lines, now with the values ahead:

stoichiometry N [7]: 6
stoichiometry N [8]: 6
Substance: collagen IV NC1 domains of the NC1 hexamer from brine shrimp (domain or fragment)

stoichiometry N [11]: 6
stoichiometry N [12]: 6
Substance: collagen IV NC1 domains of the NC1 hexamer from cicada (domain or fragment)

stoichiometry N [16]: 6
stoichiometry N [17]: 6
Substance: collagen IV NC1 domains of the NC1 hexamer from fruit fly (domain or fragment)

stoichiometry N [18]: 6
Substance: collagen IV NC1 domains of the NC1 hexamer from horseshoe crab flatworm (domain or fragment)

stoichiometry N [22]: 6
stoichiometry N [23]: 6
Substance: collagen IV NC1 domains of the NC1 hexamer from rotifers (domain or fragment)
